Measured values as given in US20170096485A1 (Hoffmann-La Roche, published 2017).
Where two headings read alike, the source gives them in different places.

Columns and labels:
human mesothelin [1] = molecular target: T1, human mesothelin (human, UniProt Q13421 296-580); assay: cell-based or functional assay
human mesothelin [2] = molecular target: T1, human mesothelin; assay: cell-based or functional assay; remark: listed apart in the source
human mesothelin [3] = molecular target: T1, human mesothelin; assay: cell-based or functional assay; remark: listed apart in the source
human mesothelin [4] = molecular target: T1, human mesothelin; assay: cell-based or functional assay; remark: listed apart in the source
cynomolgus mesothelin = molecular target: T2, cynomolgus mesothelin (cynomolgus); assay: flow cytometry on CHO cells transiently transfected to express cynomolgus MSLN
T2 construct: whole, on cells; also called cynomolgus MSLN

human CD3 = molecular target: T3, human CD3 (human, UniProt P07766 23-207); assay: flow cytometry on Jurkat cells, 3.8 pM-300 nM
T3 construct: also called CD3 epsilon
T3 sequence (P07766 23-207 limits assumed): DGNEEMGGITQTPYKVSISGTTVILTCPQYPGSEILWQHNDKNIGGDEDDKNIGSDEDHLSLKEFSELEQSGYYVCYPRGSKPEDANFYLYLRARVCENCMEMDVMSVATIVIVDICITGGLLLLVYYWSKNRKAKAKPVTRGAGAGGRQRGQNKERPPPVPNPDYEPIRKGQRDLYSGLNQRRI
Description: (§1) Briefly, Jurkat suspension cells were harvested, counted and checked for viability. Adherent AsPC-1 cells were harvested using Cell Dissociation Buffer (Gibco, #13151014), counted, checked for viability, and re-suspended at 0.9×10⁶ cells/ml in FACS buffer (100 μl PBS 0.1% BSA). […] Cells were re-incubated for further 30 min at 4° C. with the 1:100 pre-diluted AlexaFluor 647—F(ab′)₂ Fragment Goat Anti-Human IgG, Fey fragment specific secondary antibody (Jackson Immuno Research Lab, […] #109-096-008) and thereafter washed twice with cold PBS 0.1% BSA.
(§2) The stained cells were re-suspended in 100 μl 2% paraformaldehyde-containing FACS Buffer and incubated for 30 min at room temperature to fix the staining. Finally cells were centrifuged for 4 min at 350×g and 4° C., the supernatants were discarded and the cell pellets re-suspended in 200 μl FACS Buffer. Staining was analyzed by FACS using a FACS Canto II (Software FACS Diva). Binding curves and EC50 values were obtained using GraphPadPrism6 (FIG. 8A, binding to Jurkat cells, FIG. 8B binding to AsPC-1 cells).

human mesothelin [5] = molecular target: T1, human mesothelin; assay: cell-based or functional assay; remark: listed apart in the source
human mesothelin [6] = molecular target: T1, human mesothelin; assay: cell-based or functional assay; remark: listed apart in the source
human mesothelin [7] = molecular target: T1, human mesothelin; assay: flow cytometry on CHO cells transiently transfected to express human MSLN
human mesothelin [8] = molecular target: T1, human mesothelin; assay: flow cytometry on MSLN-expressing AsPC-1 cells, 3.8 pM-300 nM, fit with GraphPad Prism6
Description: as §1, §2

human mesothelin [9] = molecular target: T1, human mesothelin; assay: cell-based or functional assay; remark: listed apart in the source

T1 sequence (Q13421 296-588): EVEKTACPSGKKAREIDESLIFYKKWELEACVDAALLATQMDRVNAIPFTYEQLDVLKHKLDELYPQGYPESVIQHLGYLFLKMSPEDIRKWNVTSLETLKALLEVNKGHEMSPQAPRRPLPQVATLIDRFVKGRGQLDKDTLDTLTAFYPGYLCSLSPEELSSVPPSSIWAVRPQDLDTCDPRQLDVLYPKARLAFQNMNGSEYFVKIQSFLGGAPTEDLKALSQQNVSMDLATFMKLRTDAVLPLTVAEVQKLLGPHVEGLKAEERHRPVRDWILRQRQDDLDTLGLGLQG

B1: MSLN TCB molecule A: '2+1 IgG CrossFab, inverted' with charge modifications (VH/VL exchange in CD3 binder, charge modification in mesothelin binders) (bispecific antibody)
heavy 1: QVQLVQSGAEVKKPGASVKVSCKASGYSFTGYTMNWVRQAPGQGLEWMGLITPYNGASSYNQKFRGKATMTVDTSTSTVYMELSSLRSEDTAVYYCARGGYDGRGFDYWGQGTLVTVSSASTKGPSVFPLAPSSKSTSGGTAALGCLVEDYFPEPVTVSWNSGALTSGVHTFPAVLQSSGLYSLSSVVTVPSSSLGTQTYICNVNHKPSNTKVDEKVEPKSCDKTHTCPPCPAPEAAGGPSVFLFPPKPKDTLMISRTPEVTCVVVDVSHEDPEVKFNWYVDGVEVHNAKTKPREEQYNSTYRVVSVLTVLHQDWLNGKEYKCKVSNKALGAPIEKTISKAKGQPREPQVCTLPPSRDELTKNQVSLSCAVKGFYPSDIAVEWESNGQPENNYKTTPPVLDSDGSFFLVSKLTVDKSRWQQGNVFSCSVMHEALHNHYTQKSLSLSP
heavy 2: not shown
light 1: EVQLLESGGGLVQPGGSLRLSCAASGFTFSTYAMNWVRQAPGKGLEWVSRIRSKYNNYATYYADSVKGRFTISRDDSKNTLYLQMNSLRAEDTAVYYCVRHGNFGNSYVSWFAYWGQGTLVTVSSASVAAPSVFIFPPSDEQLKSGTASVVCLLNNFYPREAKVQWKVDNALQSGNSQESVTEQDSKDSTYSLSSTLTLSKADYEKHKVYACEVTHQGLSSPVTKSFNRGEC
light 2: DIQMTQSPSSLSASVGDRVTITCSASSSVSYMHWYQQKSGKAPKLLIYDTSKLASGVPSRFSGSGSGTDFTLTISSLQPEDFATYYCQQWSKHPLTFGQGTKLEIKRTVAAPSVFIFPPSDRKLKSGTASVVCLLNNFYPREAKVQWKVDNALQSGNSQESVTEQDSKDSTYSLSSTLTLSKADYEKHKVYACEVTHQGLSSPVTKSFNRGEC
How did the “EC50 of T-cell mediated lysis of AsPC-1 cells, 48 h (LDH release)” value (shortened to “EC50 … of AsPC-1 cells, 48 h (LDH release)”) (human mesothelin [1]) turn out when B1 was run?
Its value is 0.146 nM.

What about the “EC50 of T-cell mediated lysis of BxPC-3 cells, 48 h (LDH release)” value (from here on “EC50 … of BxPC-3 cells, 48 h (LDH release)”) (human mesothelin [1]) of the same binder?
Its value is 0.0577 nM.

What about the “EC50 of T-cell mediated lysis of NCI-H596 cells, 48 h (LDH release)” value (“EC50 … of NCI-H596 cells, 48 h (LDH release)” for short) (human mesothelin [1]) of the same binder?
Its value is 0.149 nM.

And the “EC50 … of AsPC-1 cells, 48 h (LDH release)” value (human mesothelin [2])?
The value was roughly 0.498 nM.

What about the “EC50 … of BxPC-3 cells, 48 h (LDH release)” value (human mesothelin [2]) of the same binder?
The value was 0.258 nM.

What about the “EC50 … of NCI-H596 cells, 48 h (LDH release)” value (human mesothelin [2]) of the same binder?
The value was 0.313 nM.

And the “EC50 of CD69 up-regulation on CD4 T cells (% CD4+CD69+), AsPC-1 target cells, 72 h (FACS)” value (human mesothelin [3])?
The value was 0.131 nM.

And the “EC50 of CD69 up-regulation on CD4 T cells (% CD4+CD69+), BxPC-3 target cells, 72 h (FACS)” value (human mesothelin [3])?
Its value is 0.00752 nM.

And the “EC50 of CD69 up-regulation on CD4 T cells (% CD4+CD69+), NCI-H596 target cells, 72 h (FACS)” value (human mesothelin [3])?
The value was 0.0352 nM.

And the “EC50 of CD69 up-regulation on CD8 T cells (% CD8+CD69+), AsPC-1 target cells, 72 h (FACS)” value (human mesothelin [3])?
The value was 0.0936 nM.

What about the “EC50 of CD69 up-regulation on CD8 T cells (% CD8+CD69+), BxPC-3 target cells, 72 h (FACS)” value (human mesothelin [3]) of the same binder?
Its value is 0.0307 nM.

What about the “EC50 of CD69 up-regulation on CD8 T cells (% CD8+CD69+), NCI-H596 target cells, 72 h (FACS)” value (human mesothelin [3]) of the same binder?
Its value is 0.0476 nM.

What about the “EC50 … of AsPC-1 cells, 48 h (LDH release)” value (human mesothelin [4]) of the same binder?
Its value is 0.0762 nM.

And the “EC50 … of BxPC-3 cells, 48 h (LDH release)” value (human mesothelin [4])?
The value was 0.0881 nM.

What about the “EC50 of T-cell mediated lysis of NCI-H596 cells, 24 h (LDH release)” value (human mesothelin [4]) of the same binder?
Its value is 0.0251 nM.

What about the “EC50 … of NCI-H596 cells, 48 h (LDH release)” value (human mesothelin [4]) of the same binder?
The value was 0.0971 nM.

And the EC50 (cynomolgus mesothelin)?
Its EC50 is 5.5 nM.

Does B1 bind (human CD3)?
Result: binds

What about the “EC50 of CD69 up-regulation on CD4 T cells (% CD4+CD69+), AsPC-1 target cells, 48 h (FACS)” value (human mesothelin [5]) of the same binder?
Its value is 0.174 nM.

What about the “EC50 of CD69 up-regulation on CD4 T cells (% CD4+CD69+), BxPC-3 target cells, 48 h (FACS)” value (human mesothelin [5]) of the same binder?
Its value is 0.0774 nM.

What about the “EC50 of CD69 up-regulation on CD4 T cells (% CD4+CD69+), NCI-H596 target cells, 48 h (FACS)” value (human mesothelin [5]) of the same binder?
The value was 0.0412 nM.

What about the “EC50 of CD69 up-regulation on CD8 T cells (% CD8+CD69+), AsPC-1 target cells, 48 h (FACS)” value (human mesothelin [5]) of the same binder?
The value was 0.137 nM.

And the “EC50 of CD69 up-regulation on CD8 T cells (% CD8+CD69+), BxPC-3 target cells, 48 h (FACS)” value (human mesothelin [5])?
The value was 0.0977 nM.

What about the “EC50 of CD69 up-regulation on CD8 T cells (% CD8+CD69+), NCI-H596 target cells, 48 h (FACS)” value (human mesothelin [5]) of the same binder?
The value was 0.0783 nM.

And the “EC50 of CD69 up-regulation on CD4 T cells (% CD4+CD69+), AsPC-1 target cells (FACS)” value (human mesothelin [6])?
Its value is 0.513 nM.

What about the “EC50 of CD69 up-regulation on CD4 T cells (% CD4+CD69+), BxPC-3 target cells (FACS)” value (human mesothelin [6]) of the same binder?
The value was 0.0598 nM.

What about the “EC50 of CD69 up-regulation on CD4 T cells (% CD4+CD69+), NCI-H596 target cells (FACS)” value (human mesothelin [6]) of the same binder?
Its value is 0.0774 nM.

And the “EC50 of CD69 up-regulation on CD8 T cells (% CD8+CD69+), AsPC-1 target cells (FACS)” value (human mesothelin [6])?
Its value is 0.546 nM.

And the “EC50 of CD69 up-regulation on CD8 T cells (% CD8+CD69+), BxPC-3 target cells (FACS)” value (human mesothelin [6])?
Its value is roughly 0.118 nM.

What about the “EC50 of CD69 up-regulation on CD8 T cells (% CD8+CD69+), NCI-H596 target cells (FACS)” value (human mesothelin [6]) of the same binder?
Its value is 0.145 nM.

What about the EC50 (human mesothelin [7]) of the same binder?
The EC50 was 7.76 nM.

What about the EC50 (human mesothelin [8]) of the same binder?
The EC50 was 1.44 nM.

And the “EC50 of T-cell mediated killing of AsPC-1 cells, 24 h (LDH release, human PBMCs, E:T 10:1)” value (human mesothelin [9])?
Its value is 0.308 nM.

And the “EC50 of T-cell mediated killing of AsPC-1 cells, 48 h (LDH release, human PBMCs, E:T 10:1)” value (human mesothelin [9])?
The value was 0.1 nM.

What about the “EC50 of T-cell mediated killing of BxPC-3 cells, 24 h (LDH release, human PBMCs, E:T 10:1)” value (human mesothelin [9]) of the same binder?
Its value is 0.0552 nM.

What about the “EC50 of T-cell mediated killing of BxPC-3 cells, 48 h (LDH release, human PBMCs, E:T 10:1)” value (human mesothelin [9]) of the same binder?
Its value is 0.0195 nM.

What about the “EC50 of T-cell mediated killing of NCI-H596 cells, 24 h (LDH release, human PBMCs, E:T 10:1)” value (human mesothelin [9]) of the same binder?
The value was 0.1 nM.

What about the “EC50 of T-cell mediated killing of NCI-H596 cells, 48 h (LDH release, human PBMCs, E:T 10:1)” value (human mesothelin [9]) of the same binder?
Its value is 0.143 nM.
